Assay results taken from article PMC4504005, “Structural Basis for Receptor Activity-Modifying Protein-Dependent Selective Peptide Recognition by a G Protein-Coupled Receptor” (Molecular cell, 2015).
“And” between values parts separate entries of the source, which are not always exact repeats. Equal entries are not always repeated.

Tests used:
[1] = molecular target: MBP-RAMP1 ECD-(GSA)3-CLR ECD-H6 tethered fusion protein (UniProt O60894); experiment: AlphaScreen or HTRF; competition assay: purified tethered receptor ECD fusion protein with biotin-CGRP or biotin-AM (100 nM each in Figure 6), unlabelled competitor peptide varied; apparent affinities
[2] = molecular target: MBP-RAMP2 ECD [L106R]-(GSA)3-CLR ECD-H6 tethered fusion protein (UniProt O60895); experiment: as above

CGRP(8–37)NH2 (peptide)
IC50 [1]: 2 µM
pIC50 [1]: 5.01

AM(22–52)NH2 (peptide)
IC50 [2]: 5 to 15 µM
pIC50 [2]: 4.92 and 4.84

CGRP(27–37)NH2 [D31, P34, F35] (peptide)
IC50 [1]: 0.46 µM
pIC50 [1]: 6.79

AM(37–52)NH2 (peptide)
pIC50 [2]: 5

CGRPmut [F37Y] (peptide)
pIC50 [2]: 4.79
pIC50 [1]: 6.24
